From the Human Domainome abundance scans (Beltran et al. 2025)

B1: Gamma-crystallin C, residues 4 to 79; numbered along this chain, P07315 (parent)
chain: ITFYEDRAFQGRSYETTTDCPNLQPYFSRCNSIRVESGCWMLYERPNYQGQQYLLRRGEYPDYQQWMGLSDSIRSC

Variants of: B1
Assay: abundance fitness (aPCA) (normalised: wild type 0, dead -1); higher = more abundant; growth selection in yeast, the domain comes from the species named
Details: Homo sapiens

Abundance fitness: each site, then its substitutions
L23: S -0.39; E -0.617; Q -0.959; T -0.081; A -0.173; N -0.676; V 0.005; I -0.059; R -1.01; W -0.771; G -0.727; M 0.027
V35: I -0.916; P -1.03; A -0.422; S -0.589; L -0.038; T -0.081; R -0.893; G -1.01; W -1.08; C -0.291; Y -0.827; Q -0.854; E -1.11; M -0.84
R34: V -0.039; E -0.373; Q -0.041; C -0.107; S -0.143; Y -0.098; D -0.382; G -0.593; F -0.113; W -0.045; T 0.047; M -0.153; P -0.827; L -0.077; A 0.026; H -0.163
W40: C 0.03; V 0.088; P -0.939; R -0.969; D -0.849; E -0.978; M -0.496; T -0.43; I 0.01; G -0.435; L -0.243; A 0.036; S -0.451; Y -0.16
S32: W -0.889; H -0.642; P -0.857; D -0.812; I -0.805; K -0.953; Q -0.916; A -0.101; R -1.07; L -0.985; G -0.424; F -1.09
Q24: P -0.308; L 0.116; G 0.027; A -0.109; E 0.125; F -0.14; C -0.131; D 0.13; Y 0.011; W 0.034; K -0.048; S 0; R 0.007; V 0.006; I -0.056
S28: N 0.058; K 0.317; G 0.042; D 0.166; V -0.03; A -0.038; P -0.115; Q -0.057; W -0.15; L -0.082; F 0.044; C -0.117; E 0.093; R -0.045; I -0.017; H -0.014; Y -0.012
C30: T -0.176; R -0.768; I -0.1; Q -0.713; G -0.582; E -0.95; W -0.58; Y -0.472; P -0.079; F -0.176; S 0.03; L -0.299
N31: V -0.052; S -0.019; L -0.294; R -0.013; A -0.576; T -0.056; G -0.069
Y43: C 0.111; A -0.156; D -0.817; R -0.926; T -0.249; G -0.775; L -0.889; M -0.296; S 0.094; H 0.055; F -0.15; P -1.03; W -0.139; V -1.05; Q -0.86
E36: D 0.021; M 0.019; R -0.069; W 0.003; P 0.018; I -0.201; K -0.074; N -0.004; T 0.11; A 0.048; Q -0.081; S -0.032; L -0.078; G -0.031; F -0.131; V 0.008
S37: I 0.072; E -0.12; M -0.031; V 0.066; A -0.255; H -0.142; L -0.301; T 0.028; G -0.061; C -0.091; R -0.004; Q -0.124; W -0.113
Y26: N 0.052; I 0.237; V 0.046; K -0.047; S 0.045; H -0.082; Q -0.077; P -0.046; E -0.138; R -0.031; T -0.186; L 0.037; M 0.078; G 0.044; F 0.033; W -0.092; D -0.179; A 0.064
C39: V 0.011; T -0.012; E -0.045; M -0.027; W 0.031; G 0.08; Q -0.088; N -0.12; R -0.071; F -0.036; L -0.074; S 0.062; P 0.092; D -0.133; Y -0.014; I -0.014; A -0.051
P25: N 0.048; E 0.086; H -0.241; M 0.005; G 0.032; K 0.008; A -0.002; S 0.047; F -0.076; Q -0.05; C 0.227; Y -0.257; I -0.174; T 0.199; L 0.021; D 0.323; V 0.054
I33: E -0.676; R -0.883; T -0.494; F -0.057; A 0.054; C 0.074; W -0.776; M 0.191; Q -0.792; K -0.835; V -0.094; S -0.642; P -0.756
G38: I -0.202; D 0.171; R -0.153; Y -0.109; S 0; K -0.177; E -0.009; T -0.191; L -0.177; M -0.141; C -0.005; A -0.008; H -0.309; W -0.427; P -0.108
R45: G 0.061; A -0.025; F 0.032; M -0.001; C -0.142; D -0.11; H -0.057; I -0.16; L -0.146; N -0.169; Q -0.13; K 0.089; S -0.127; P -0.955
E44: Q 0.049; D 0.022; P -0.283; C 0.068; T -0.206; A -0.034; W -0.372; I -0.02; R 0.002; H -0.137; M 0.355; L -0.006; G 0.02; S -0.077; F -0.414; V -0.147
F27: E -0.794; P -0.865; H -0.096; R -0.269; N -0.315; C -0.203; T 0.079; G -0.186; L -0.09; M 0.064; I -0.144; K -0.658; S -0.109; D -1.02; A 0.124; Y -0.468
R29: V -0.009; M 0.096; Q -0.117; Y 0.024; D -0.239; T 0.101; W -0.053; F 0.103; A 0.085; S 0.059; E -0.021
N22: W -0.19; V 0.026; Y 0.079
L42: G -0.063; C -0.031; A -0.102; D -0.857; T -0.095; R -1.16; M 0.045; W -0.919; N -0.967; Q -0.888; S -0.287; Y -0.728; P -0.864; E -1.16; V -0.011
M41: Q 0.046; Y 0.032; R -0.018; E 0.059; V -0.115; C -0.041; F 0.104; D -0.133; H -0.186; P -0.981; W 0.039; L -0.056; N -0.132; K -0.056; S 0.068; A -0.07
